Experimental data reported in PMC7720844.
Each block holds one substance with its values, some of them ahead of it.

What was measured:
WTAP = WTAP (UniProt Q15007); assay: co-IP, immunoblot; conditions: reference: wild type; sites S43,S50,S525
USP5 = USP5 (UniProt P45974); assay: anti-myc co-IP, immunoblot; conditions: reference: wild type

binding against the reference (WTAP): weaker
Substance: METTL3 (from UniProt Q86U44) 3A (S43A/S50A/S525A)

binding against the reference (USP5; sites S43): weaker
Substance: METTL3 (from UniProt Q86U44) S43A

binding against the reference (USP5; sites S50): weaker
Substance: METTL3 (from UniProt Q86U44) S50A

binding against the reference (USP5; sites S525): weaker
Substance: METTL3 (from UniProt Q86U44) S525A
